Values belong to the binder of their own block, whether it stands above or below them.
Columns and labels:
[1] = target: CLIP-PHloop protein (10xHis-CLIP-tagged glycine receptor β loop) (CLIP tag covalently bound (thioether) to the benzylcytosine at an extremity of the DNA molecule); experiment: single-molecule magnetic tweezers; SNAP-gephyrin and CLIP-PHloop attached to the DNA molecule; force cycling FLF=0.01 pN for 13 s / FHF=1.1 pN for 52 s; 19.2 °C; GB buffer [continued]
Text: HF corresponds to the application of a high force (“High Force”); LF corresponds to the application of a low force (“Low Force”). The test molecules can be either associated (A for “Associated”) or dissociated (D for “Dissociated”).

[2] = target: T1, FKBP12 protein having the sequence of SEQ ID NO: 7, with 4-azido-L-phenylalanine at position 1, conjugated to … (Homo sapiens (Human), UniProt P62942 2-108, 4-azido-L-phenylalanine in place of methionine at position 1; the azide is click-coupled to the DBCO-dT at the 5' end of oligo-Tc (Oligo-Tc2, SEQ ID NO: 5), which is ligated to the double-stranded …); experiment: magnetic tweezers, force cycling, FHF=6 pN, T=303 K, 500 nM rapamycin
T1 construct: In the assay it is present as the binary complex with rapamycin (500 nM)
Text: (§1) At each passage at FLF=0.05 pN for time TLF=13 s, the test molecules associate, then, after passage at FHF=1.4 pN, they separate after a time indicated as t_HF-A. The high force is applied for time THF=155 s. […] C) Temporal monitoring of the extension of the double-stranded DNA molecule when the force is cycled between high value and low value (TS: schematic diagram of the FHF/FLF cycles). At each passage at FLF=0.05 pN for time TLF=14 s the test molecules associate and then, after passage at FHF=6 pN, they separate after a time indicated as t_HF-A. The high force is applied for time THF=125 s. […] The curves are provided for several temperatures: OT=29.1° C.; […]T=25.4° C.; ⋄ T=21.7° C.; x T=19.2° C. […] F) Variation of XD, the distance separating the transition state from the complex during dissociation, as a function of temperature. […] A linear fit in agreement with the Arrhenius-Bell model, ln[kD⁰]=A−ED/kBT, makes it possible to determine ED, the activation energy of the dissociation reaction.
(§2) Example 10 was performed either at 25° C. or at 30° C. in DB reaction buffer (20 mM K-Hepes pH 7.8, 100 mM KCl, 5 mM MgCl₂, 2 mM DTT, 0.1% Tween-20, 0.1 mg/ml BSA). Measurements were also performed at 19.2° C., 21.7° C., 25.4° C. and 29.1° C. (see FIG. 15E).

[3] = target: T1, FKBP12 protein having the sequence of …; experiment: magnetic tweezers, force cycling, FHF=1.4 pN, T=303 K, 500 nM rapamycin
Text: as §1, §2

[4] = target: T1, FKBP12 protein having the sequence of …; experiment: derived as kA=kD/KD; magnetic tweezers, FCF=0.04 pN, 25 °C, 500 nM rapamycin; derived as kA=kD/KD
Experimental: as §2
(§3) Said fraction of time spent by the test molecules in associated form is determined according to (Σt_{CF-A})/tₜₒₜₐₗ, where tₜₒₜₐₗ is the total time during which the fluctuations are recorded and analyzed.

[5] = target: T1, FKBP12 protein having the sequence of …; experiment: magnetic tweezers, force cycling, FHF=1.4 pN, T=298 K, 500 nM rapamycin; kD=1/<τD> averaged over several molecules
[6] = target: T1, FKBP12 protein having the sequence of …; experiment: magnetic tweezers, spontaneous fluctuations at constant force FCF=0.04 pN, 25 °C, 500 nM rapamycin; average over several DNA molecules and inversion; no free FRB in solution; FCF=0.04 pN, 25 C
Experimental: as §2

[7] = target: T1, FKBP12 protein having the sequence of …; experiment: magnetic tweezers, spontaneous fluctuations at FCF=0.04 pN, 25 °C, 500 nM rapamycin, with 0-200 nM free FRB in solution; average over concentrations; 0-200 nM free FRB in solution; averaged over concentrations
Experimental: as §2, §3

T1 sequence (P62942 other isoform, or with tags, fused parts or gaps limits assumed): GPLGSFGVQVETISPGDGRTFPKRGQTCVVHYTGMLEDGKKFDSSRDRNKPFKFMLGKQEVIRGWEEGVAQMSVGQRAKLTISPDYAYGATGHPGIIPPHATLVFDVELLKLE
CLIP-PHloop protein (10xHis-CLIP-tagged glycine receptor β loop) (CLIP tag covalently bound (thioether) to the benzylcytosine at an extremity of the DNA molecule), sequence (chain, as listed by the source limits assumed): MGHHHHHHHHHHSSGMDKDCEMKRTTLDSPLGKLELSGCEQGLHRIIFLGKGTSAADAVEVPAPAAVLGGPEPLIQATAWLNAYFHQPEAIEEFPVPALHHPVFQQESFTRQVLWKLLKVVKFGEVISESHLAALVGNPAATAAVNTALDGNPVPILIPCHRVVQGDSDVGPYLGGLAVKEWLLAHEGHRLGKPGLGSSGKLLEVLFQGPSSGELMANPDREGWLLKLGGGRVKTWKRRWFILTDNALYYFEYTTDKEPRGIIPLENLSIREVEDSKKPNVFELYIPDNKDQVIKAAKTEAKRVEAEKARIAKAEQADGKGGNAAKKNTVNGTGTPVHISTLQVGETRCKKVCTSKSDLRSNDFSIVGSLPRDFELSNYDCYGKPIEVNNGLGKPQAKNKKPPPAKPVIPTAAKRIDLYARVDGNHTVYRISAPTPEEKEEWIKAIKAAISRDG

binding result [1]: binds
B1: SNAP-gephyrin rC4 (other)
chain: MRGSHHHHHHGSACELSSGLEVLFQGPHMASMDKDCEMKRTTLDSPLGKLELSGCEQGLHEIKLLGKGTSAADAVEVPAPAAVLGGPEPLMQATAWLNAYFHQPEAIEEFPVPALHHPVFQQESFTRQVLWKLLKVVKFGEVISYQQLAALAGNPAATAAVKTALSGNPVPILIPCHRVVSSSGAVGGYEGGLAVKEWLLAHEGHRLGKPGLGSSGGTMATEGMILTNHDHQIRVGVLTVSDSCFRNLAEDRSGINLKDLVQDPSLLGGTISAYKIVPDEIEEIKETLIDWCDEKELNLILTTGGTGFAPRDVTPEATKEVIEREAPGMALAMLMGSLNVTPLGMLSRPVCGIRGKTLIINLPGSKKGSQECFQFILPALPHAIDLLRDAIVKVKEVHDELEDLPSPPPPLSPPPTTSPHKQTEDKGVQCEEEEEEKKDSGVASTEDSSSSHITAAALAAKIPDSIISRGVQVLPRDTASLSTTPSESPRAQATSRLSTASCPTPKARLPSCSSTYSVSEVQSRCSSKENILRASHSAVDITKVARRHRMSPFPLTSMDKAFITVLEMTPVLGTEIINYRDGMGRVLAQDVYAKDNLPPFPASVKDGYAVRAADGPGDRFIIGESQAGEQPTQTVMPGQVMRVTTGAPIPCGADAVVQVEDTELIRESDDGTEELEVRILVQARPGQDIRPIGHDIKRGECVLAKGTHMGPSEIGLLATVGVTEVEVNKFPVVAVMSTGNELLNPEDDLLPGKIRDSNRSTLLATIQEHGYPTINLGIVGDNPDDLLNALNEGISRADVIITSGGVSMGEKDYLKQVLDIDLHAQIHFGRVFMKPGLPTTFATLDIDGVRKIIFALPGNPVSAVVTCNLFVVPALRKMQGILDPRPTIIKARLSCDVKLDPRPEYHRCILTWHHQEPLPWAQSTGNQMSSRLMSMRSANGLLMLPPKTEQYVELHKGEVVDVMVIGRL
modifications: SNAP tag covalently bound (thioether) to the benzylguanine at an extremity of the DNA molecule
notes: also called Gephyrin construct rC4

koff [2]: 0.0649 s⁻¹ | koff [3]: 0.0484 s⁻¹ | kon [4]: 4.5e+06 M⁻¹ s⁻¹ | koff [5]: 0.0322 s⁻¹ | koff [6]: 0.0341 s⁻¹ | koff [7]: 0.0327 s⁻¹
B2: FRB protein (FRB subunit of the mTOR protein complex) having the sequence of SEQ ID NO: 6, with 4-azido-L-phenylalanine at position 2,020, conjugated to an … (other)
chain: GPLGSFILWHEMWHEGLEEASRLYFGERNVKGMFEVLEPLHAMMERGPQTLKETSFNQAYGRDLMEAQEWCRKYMKSGNVKDLTQAWDLYYHVFRRISKQLPQL
modifications: 4-azido-L-phenylalanine in place of alanine at position 2,020; the azide is click-coupled to the DBCO-dT at the 5' end of oligo-Tc (Oligo-Tc1, SEQ ID NO: 4), which is ligated to the double-stranded DNA molecule
notes: Free FRB added in solution (0-200 nM) is described as identical to the test molecule

From patent US20230054300A1 (PARIS SCIENCES ET LETTRES QUARTIER LATIN, published 2023)
